Source: paper PMC7042235

Biological target: microtubules (polymerized porcine tubulin) (porcine) (UniProt P02550)
Assay: co-sedimentation; purified MTBDs (1-32 uM) mixed with 5 uM paclitaxel-stabilised porcine MTs; 100 mM PIPES pH 6.8, 50 mM NaCl, 2 mM MgCl2, 1 mM EGTA; 210,000 x g, 25 °C, 10 min; pellets on SDS-PAGE, densitometry, one-site curve fitting

Substance “MTBD-WT (microtubule-binding domain of yeast cytoplasmic dynein, K3096-E3232) (from UniProt P36022 3096-3232) (domain or fragment)” has a Kd of 6.7 µM.
